# Measurements as given in IntAct's records for PubMed 22493500.
# B1: Colicin-A (Citrobacter freundii), P04480 (parent)
# chain: MPGFNYGGKGDGTGWSSERGSGPEPGGGSHGNSGGHDRGDSSNVGNESVTVMKPGDSYNTPWGKVIINAAGQPTMNGTVMTADNSSMVPYGRGFTRVLNSLVNNPVSPAGQNGGKSPVQTAVENYLMVQSGNLPPGYWLSNGKVMTEVREERTSGGGGKNGNERTWTVKVPREVPQLTASYNEGMRIRQEAADRARAEANARALAEEEARAIASGKSKAEFDAGKRVEAAQAAINTAQLNVNNLSGAVSAANQVITQKQAEMTPLKNELAAANQRVQETLKFINDPIRSRIHFNMRSGLIRAQHNVDTKQNEINAAVANRDALNSQLSQANNILQNARNEKSAADAALSAATAQRLQAEAALRAAAEAAEKARQRQAEEAERQRQAMEVAEKAKDERELLEKTSELIAGMGDKIGEHLGDKYKAIAKDIADNIKNFQGKTIRSFDDAMASLNKITANPAMKINKADRDALVNAWKHVDAQDMANKLGNLSKAFKVADVVMKVEKVREKSIEGYETGNWGPLMLEVESWVLSGIASSVALGIFSATLGAYALSLGVPAIAVGIAGILLAAVVGALIDDKFADALNNEIIRPAH
# partner: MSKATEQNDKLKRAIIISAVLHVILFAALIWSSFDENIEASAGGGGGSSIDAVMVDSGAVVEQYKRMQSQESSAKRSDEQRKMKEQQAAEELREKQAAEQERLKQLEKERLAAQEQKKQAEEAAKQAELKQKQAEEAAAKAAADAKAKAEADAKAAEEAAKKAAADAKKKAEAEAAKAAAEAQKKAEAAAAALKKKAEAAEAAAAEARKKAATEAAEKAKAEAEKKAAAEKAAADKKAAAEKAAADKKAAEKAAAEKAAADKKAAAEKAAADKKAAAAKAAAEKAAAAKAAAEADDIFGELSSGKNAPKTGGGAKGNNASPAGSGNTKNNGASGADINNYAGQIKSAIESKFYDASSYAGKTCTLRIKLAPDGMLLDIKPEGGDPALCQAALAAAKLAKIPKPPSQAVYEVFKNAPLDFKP
# Variants of: B1
# Conditions: with tola_ecoli tolA
row,Variant,effect of a mutation on the interaction
1,MPGFNYGGKGDGTGWSSERGSGPEPGGGSHGNSGGHDRGDSSNVGNESVTVMKPGDSANTPWGKVIINAAGQPTMNGTVMTADNSSMVPYGRGFTRVLNSLVNNPVSPAGQNGGKSPVQTAVENYLMVQSGNLPPGYWLSNGKVMTEVREERTSGGGGKNGNERTWTVKVPREVPQLTASYNEGMRIRQEAADRARAEANARALAEEEARAIASGKSKAEFDAGKRVEAAQAAINTAQLNVNNLSGAVSAANQVITQKQAEMTPLKNELAAANQRVQETLKFINDPIRSRIHFNMRSGLIRAQHNVDTKQNEINAAVANRDALNSQLSQANNILQNARNEKSAADAALSAATAQRLQAEAALRAAAEAAEKARQRQAEEAERQRQAMEVAEKAKDERELLEKTSELIAGMGDKIGEHLGDKYKAIAKDIADNIKNFQGKTIRSFDDAMASLNKITANPAMKINKADRDALVNAWKHVDAQDMANKLGNLSKAFKVADVVMKVEKVREKSIEGYETGNWGPLMLEVESWVLSGIASSVALGIFSATLGAYALSLGVPAIAVGIAGILLAAVVGALIDDKFADALNNEIIRPAH [Y58A],disrupting interaction
